According to the nanobody polyreactivity screen of Harvey et al. (2022):

Experiment: yeast display, Sf9 membrane polyspecificity reagent, FACS + sequencing; frameworks hold sequencing errors
Procedure, shortened: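 Nanobodies came from a synthetic yeast display library in Saccharomyces cerevisiae BJ5465, induced with galactose for 36–48 hours and stained for 1 hour at 4 °C with 10% biotinylated, detergent-solubilized Sf9 membrane reagent. Cells were enriched on streptavidin microbeads and then FACS-sorted, with low and high (top ~1%) gates set on anti-HA fluorescence for expression and streptavidin fluorescence for reagent binding. Each polyreactivity label reflects the gate a clone came from. Genes were amplified by colony PCR, sequenced by MiSeq 2 × 250 and filtered by CDR length.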

Sequence | polyreactivity (PSR sort gate)
QVQLVESGGGSVQAGGSLRLSCAASGIIFWYYTMGWYRQAPGKERELVAAISWSSGITYYADSVKGRFTISRDNAKNTVYLQMNSLKPEDTAVYYCAAAVSPHSEGFGEYNYWGQGTQVTVSS | low polyreactivity
QVQLVESGGGSVQAGGSLRLSCAASGSIYYYAMGWYIQAPGKERELVAAISRSGGSTYYADSVKGRFTISRDNAKNTVYLQMNCLKPEDTAVYYCAKGYRGYSYGYCGQGTQVTVSS | high polyreactivity
QVQLVESGGGSVQAGGSLRLSCAASGYIFGVYDMGWYRQAPGKERELVAAISSGGSTNYADSVKGRFTISRDNAKNTVYLQMNSLKPEDTAVYYCNADYIFYYEYDYWGQGTQVTVSS | low polyreactivity
QVQLVESGGGVDQAGGSLRLSCAASGSTFHLYAMGCYRQAPGKERESVAAIRGRGGNTYADSVKGRFTISRDNAYNTVYLQMNSLKPEDTAVYYCAAPLLRDLRSPYSYNYWVQGTQVTVSS | low polyreactivity
QVQLVESGGGVDQAGVSLRLSCAASGIICFGYAMGWYRQAPGNERELVARITRSGASTYYADSVKGRFTISRDNAKKTVYLQMYSLTPEDTPVSYCAADYRKRYDYWGQGTQVTVSS | low polyreactivity
QVQLVESGGGVGQAGGSLRLSCAASGSNFKYYAMGWYRPAPGKERELVAVITSGGSTYYADSVKGRFTISRDNAKNTVYLQMNSLKPEDTAVYDCAAGVRAYNWGEYDYWGQGTQVTVSS | low polyreactivity
QVQLVESGGGVVEAGGSLRLSCAASGSTLGFYARGWYRQAPGKEWEFVAAITRSGTSTYYADSVKGRFTISRDNAKNTVYLQMTSLKPEDTAVYYCPAESYYGVPYDSWGQGTQVTLSS | high polyreactivity
QVQLVESGGGVVQAGGGLRLSCAASGRTFIGNAMGWYRQAPGKEREFVAYITLSGGSTYYADSVKGRFTISRDNATINVYLQMNSLKPEDRAVYYCADKRFFGYLGYNRGGSRYDYWGQGTQVTVSS | high polyreactivity
QVQLVESGGGVVQAGGMLRLSCAASGTTFDVYAMGGYRQAPGKEREFVAAITTSGGSTYYADSVKGRFSISRDNAKNTVYLEMYSLKPEVTAVYYCAAVWWKSFQGSSYRMNYWGQGTQVTVSS | high polyreactivity
QVQLVESGGGVVQAGGRLRLSCAASGRILPFYAMGWYRQETGKERELVPGITTGTSTTYADSVNGRFTISRDNAKNTVYFQMHSLKPEDTAVYYCNTLVVPYTDFNTSYNVDYWGQGTQVTVSS | low polyreactivity
QVQLVESGGGVVQAGGSHRLSCAASGRTFRGNAMGWYRQAPGTERELVATITCSGGSTYYADSVKGRFTISRDNAKNTGYLQMNSLKPEDTAGYAGAVRGLHLVWVPFGYDYWRQGTQVTVSS | low polyreactivity
QVQLVESGGGVVQAGGSHRLSCAASGSIFSSDAMGWYRQAPGKEREFVAAISSSGDSTYADSVKGRFTISRDNAKNTVYLQINSLKPEDTAVYYCAVGGAGSDDYWGPGTQVTVSS | low polyreactivity
QVQLVESGGGVVQAGGSLGLSCAASGGIFAPYPMGWNRQAPGKERELAAAISSSDGSTYYADSVKGRFTISRDNAKNTVYLQMNSLKTEDTAVYYCAADYREDYGYWGQGTQVTVSS | low polyreactivity
QVQLVESGGGVVQAGGSLGLSCAASGRIFDVNAMGWYRQAPGKERELVAAITYSDGSTYYADSVKGRFTISRDIAKNTVYLQMNSLKPEDTAVYYCAATQEPVTPQPYGYWGQGTQVTVSS | low polyreactivity
QVQLVESGGGVVQAGGSLRLSCAASGFIFWLYAMGRYRQAPGKERELVATITYSDGSTYYADSVKGRFTISRDKANNTDYLQMNSLKPEDTAVYYCAAEVYYGYDYWGQGTQVTVSS | low polyreactivity
QVQLVESGGGVVQAGGSLRLSCAASGFIIARNAMGWYRQAPGKERELVAAISASGGRTYYSDSEKGRFTISRDNAKNTVYLQMNSLKPEDTAVYYCAARRDGRSGSYNYWGQGTQVTVSS | high polyreactivity

Sequence | polyreactivity (PSR sort gate)
QVQLVESGGGVVQAGGSLRLSCAASGFIISYNVMVWYRQAPGKERELVAAISSSGGSTYYADSVKGRFTISRDNAKNTVYLQMNSLKPEDTAVYYCATRVSRSFRAYDYWGQRTQVTVSS | high polyreactivity
QVQLVESGGGVVQAGGSLRLSCAASGFILRAYAMGWYRQAPGKERELVAAITSATSTNYADSVKGRFTISRDNAKNTVYLQMNSLKPEDTAVYYCAADGGGGEFSYDSWGQGTQVTVSS | low polyreactivity
QVQLVESGGGVVQAGGSLRLSCAASGLIFAYAMGWYSPAPGKERELVAVISWSGGSTYYADSVKGRFTISRDNAKNTVYLQMNSLKPEDTAVYYCAADYFGNWQLAGGYWGQGTQVTVSS | low polyreactivity
QVQLVESGGGVVQAGGSLRLSCAASGRIFKSYAMGWYRPAPGKERELVASISYTGGSTYYAASVKGRFTISRDNAKNTVYLQMNRLKPEDTAVYDCAAKRVRSAGSYGYWGQGTQVTVSS | low polyreactivity
QVQLVESGGGVVQAGGSLRLSCAASGRIFRYYTMGWYRQAPGKERELVASITGSGTSTYYADSVKGRFTISRDNAKNTVYLQMNSLKPEDNAVYYCNARGFRVASHAAWYQYDYWGQGTQVTVSS | high polyreactivity
QVQLVESGGGVVQAGGSLRLSCAASGRTFPYYTMGWYRQAPGKERELVAAITRSGDSTYYADSVKGRFTISRDNAKNTVYLQMYSLKPEDTAVYYCAADIWSSDYEEFYYWGLGTQVTVSS | low polyreactivity
QVQLVESGGGVVQAGGSLRLSCAASGRTYGYNAMGWYRPAPGTERELVAAITKSGVSTYYADSVKGRFTISRDNAKNTVYLQMNSLKPEDTAVYYCAVDSYYYSMDYWGQGTQVTVSS | high polyreactivity
QVQLVESGGGVVQAGGSLRLSCAASGSIFLGNAMGWYRPAPGKERELVAAITWSGGSTYYADSVKGRFTISRDNAKNTVYLQMNSLKPEDTAVYYCNAYSYVAIRDGGDYWGQGTLVTVSS | low polyreactivity
QVQLVESGGGVVQAGGSLRLSCAASGSIFRYYTRGGYRQAPGKVRELVAAISRSGGSTYYADSVKGRFTISRDNAKNTVYLQMNSLKPEDTAVYYCAARYKRAQGYREGDYWGQGTQVTVSS | high polyreactivity
QVQLVESGGGVVQAGGSLRLSCAASGSTFGWYALGWYRQAPGKERELVAAITSGGSTKYADSVKGRFTISRDNAKNTVVLQMNSLKTEDTAVYYCDTVRGYYSPVLVIGYYWGQGTQVTVSS | high polyreactivity
QVQLVESGGGVVQAGGSLRLSCAASGSTFLLYDMGWYRQAPGKERELVARISSGDSTNYADSVKGRFTISRDNAKNTVYLLMNSLIPEDTAVYYCAAEGGVQEFDYWGQGTQVTVSS | low polyreactivity
QVQLVESGGGVVQAGGSLRLSCAASGSTFLVNAMGWYRQAPGKERELVAAISRSTGSTYYADSVKGRFTISRDNAKNSVYLQMNSLKPEDTAVYYCAVYRHGYGYNYWGQGTQVTVSS | high polyreactivity
QVQLVESGGGVVQAGGSLRLSCAASGSTFVFYTMGWSRQAPGKEREFVASISGSGGSTYYADSVKGRFTISRDNAKNTVYLQMNSLKPEDTAVYYCAAGYPYYYWTPYYYWGQGTQVTVSS | high polyreactivity
QVQLVESGGGVVQAGGSLRLSCAASGSTFYLTVLGWYRKAPGKERELVAASSSSGGSTYYADSVKGRFTISRDNAKNTVYLQMNSLKPEDTAVYYCNKVSAFPHYSGYAYWGQGTQVPVSS | low polyreactivity
QVQLVESGGGVVQAGGSLRLSCAASGSTMGYYAMGWYRPAPGKERELVATITRSGGNTYYADSVKGRFTISRDNAKNTVYLQMNSLKPDDNAVYYCAARRLYGSQRGYWGHGTQVTVSS | high polyreactivity
QVQLVESGGGVVQAGGSLRLSCAASGSTSGIYAMGWYRQAPGKERELVAAIDTYGGSTYADSVKGRFTISRDNAKNTVYLQMNSVKPEDTAVYYCAKPFSSNSWSHGYCGQGTQVTVSS | low polyreactivity
